Experimental data as given in patent US20230235013A1 (MABSOLVE, published 2023).

Columns and labels:
[1] = biological target: T1, Histidine-tagged recombinant human FcγRI (CD64) (human, UniProt P12314 16-288, limits assumed); experiment: SPR, His-FcγRI captured; Expt 3;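 further: biacore T200 SPR at 25 °C, Fc-variant antibodies at 100 µg/mL flowed 1 min over anti-His-captured FcγRI, signal taken just before injection end minus a buffer blank cycle; antibody analyte injected at 100 µg/mL for 1 min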
T1 construct: bought

[2] = biological target: T2, human FcγRIIIA (F158) (human, UniProt P08637 17-208); experiment: SPR, FcγRIIIA captured; further: test concentration or dose not given here
T2 construct: bought; F158 allele

[3] = biological target: T1, Histidine-tagged recombinant human …; experiment: SPR, His-FcγRI captured; mean;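 further: biacore T200 SPR at 25 °C, anti-His surface capturing FcγRI, Fc-variant antibodies injected at 100 µg/mL for 1 min, signal near injection end minus third buffer blank, three repeats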
Description: Binding analysis was carried out by surface plasmon resonance at 25° C. using a Biacore® T200 instrument with Biacore® T200 control software. The sample compartment was held at 5° C. The running buffer (HBS-EP+) consisted of 0.01 M HEPES pH 7.4, containing 0.15 M NaCl, 3 mM EDTA, and 0.05% v/v Surfactant P20. Methods were run using the manufacturer's standard method wizards as described in the Biacore® T200 Instrument Handbook.
The cell was activated by treatment with EDC/NHS for 7 min. The antibody was diluted to 10 μg/mL in 10 mM sodium acetate pH 5.0 and injected for 7 min at 5 μL/min. The flow cell was deactivated by injection of 1M ethanolamine for 7 min. This process was repeated in the absence of anti-his antibody on a separate flow cell to generate a reference surface. […] Samples of purified antibodies comprising variant Fc regions (1 mg/mL in PBS) were diluted with running buffer to 100 μg/mL and were injected for 1 min at 30 μL/min and allowed to disassociate for 2 min. Between each cycle, the chip was regenerated by injection of 10 mM glycine pH 3.0 for 0.5 min at a flow rate of 30 μL/min and recharged with a fresh injection of FcγRI. At the beginning of each experiment, three blank cycles were run, with buffer alone being injected instead of test sample. The average SPR signal (relative to the reference cell) was measured in a window approximately 8 to 13 seconds before the injection of test sample (baseline) and approximately 3 to 8 seconds before the end of injection (response). The response of the third of the blank (buffer) samples was subtracted from the response of each test sample in order to allow for any dissociation of the bound FcγRI giving a corrected response for each test sample. The whole experiment was repeated three times with the test samples being analysed in different orders each time.

[4] = biological target: T1, Histidine-tagged recombinant human …; experiment: SPR, His-FcγRI captured; Expt 1;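 further: SPR at 25 °C on anti-His antibody chip capturing FcγRI, Fc-variant antibodies injected at 100 µg/mL for 1 min, signal near end of injection minus buffer blank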
[5] = biological target: T1, Histidine-tagged recombinant human …; experiment: SPR, His-FcγRI captured; Expt 2;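 further: biacore T200 SPR at 25 °C, Fc-variant antibodies at 100 µg/mL flowed 1 min over anti-His-captured receptor, signal read near injection end minus third buffer blank; antibody analyte injected at 100 µg/mL for 1 min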

T2 sequence (P08637 17-208 limits assumed): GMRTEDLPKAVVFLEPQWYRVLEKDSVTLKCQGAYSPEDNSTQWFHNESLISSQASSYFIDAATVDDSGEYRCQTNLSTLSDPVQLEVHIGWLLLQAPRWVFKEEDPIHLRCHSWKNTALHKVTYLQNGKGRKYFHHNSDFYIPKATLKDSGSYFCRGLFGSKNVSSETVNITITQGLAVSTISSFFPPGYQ

B1: anti-CD20 human IgG1 L234Q/L235V/G236R (antibody)
heavy: QVQLQQPGAELVKPGASVKMSCKASGYTFTSYNMHWVKQTPGRGLEWIGAIYPGNGDTSYNQKFKGKATLTADKSSSTAYMQLSSLTSEDSAVYYCARSTYYGGDWYFNVWGAGTTVTVSSASTKGPSVFPLAPSSKSTSGGTAALGCLVKDYFPEPVTVSWNSGALTSGVHTFPAVLQSSGLYSLSSVVTVPSSSLGTQTYICNVNHKPSNTKVDKKVEPKSCDKTHTCPPCPAPEQVRGPSVFLFPPKPKDTLMISRTPEVTCVVVDVSHEDPEVKFNWYVDGVEVHNAKTKPREEQYNSTYRVVSVLTVLHQDWLNGKEYKCKVSNKALPAPIEKTISKAKGQPREPQVYTLPPSRDELTKNQVSLTCLVKGFYPSDIAVEWESNGQPENNYKTTPPVLDSDGSFFLYSKLTVDKSRWQQGNVFSCSVMHEALHNHYTQKSLSLSPGK
light: QIVLSQSPAILSASPGEKVTMTCRASSSVSYIHWFQQKPGSSPKPWIYATSNLASGVPVRFSGSGSGTSYSLTISRVEAEDAATYYCQQWTSNPPTFGGGTKLEIKRTVAAPSVFIFPPSDEQLKSGTASVVCLLNNFYPREAKVQWKVDNALQSGNSQESVTEQDSKDSTYSLSSTLTLSKADYEKHKVYACEVTHQGLSSPVTKSFNRGEC
- Corrected response (RU) [1]: 4.5 RU
- Corrected response (RU) [2]: 4.7 RU
- Corrected response (RU), Mean [3]: 2.5 RU
- Corrected response (RU) [4]: 0.5 RU
- Corrected response (RU) [5]: 2.5 RU

B2: anti-CD20 human IgG1 L234S/L235H/G236R (antibody)
heavy: QVQLQQPGAELVKPGASVKMSCKASGYTFTSYNMHWVKQTPGRGLEWIGAIYPGNGDTSYNQKFKGKATLTADKSSSTAYMQLSSLTSEDSAVYYCARSTYYGGDWYFNVWGAGTTVTVSSASTKGPSVFPLAPSSKSTSGGTAALGCLVKDYFPEPVTVSWNSGALTSGVHTFPAVLQSSGLYSLSSVVTVPSSSLGTQTYICNVNHKPSNTKVDKKVEPKSCDKTHTCPPCPAPESHRGPSVFLFPPKPKDTLMISRTPEVTCVVVDVSHEDPEVKFNWYVDGVEVHNAKTKPREEQYNSTYRVVSVLTVLHQDWLNGKEYKCKVSNKALPAPIEKTISKAKGQPREPQVYTLPPSRDELTKNQVSLTCLVKGFYPSDIAVEWESNGQPENNYKTTPPVLDSDGSFFLYSKLTVDKSRWQQGNVFSCSVMHEALHNHYTQKSLSLSPGK
light: QIVLSQSPAILSASPGEKVTMTCRASSSVSYIHWFQQKPGSSPKPWIYATSNLASGVPVRFSGSGSGTSYSLTISRVEAEDAATYYCQQWTSNPPTFGGGTKLEIKRTVAAPSVFIFPPSDEQLKSGTASVVCLLNNFYPREAKVQWKVDNALQSGNSQESVTEQDSKDSTYSLSSTLTLSKADYEKHKVYACEVTHQGLSSPVTKSFNRGEC
notes: also called 2-48
- Corrected response (RU) [1]: 3.9 RU
- Corrected response (RU) [2]: 3.7 RU
- Corrected response (RU), Mean [3]: 1.8 RU
- Corrected response (RU) [4]: 0.4 RU
- Corrected response (RU) [5]: 1.1 RU

B3: anti-CD20 human IgG1 L234R/L235E/G236R (antibody)
heavy: QVQLQQPGAELVKPGASVKMSCKASGYTFTSYNMHWVKQTPGRGLEWIGAIYPGNGDTSYNQKFKGKATLTADKSSSTAYMQLSSLTSEDSAVYYCARSTYYGGDWYFNVWGAGTTVTVSSASTKGPSVFPLAPSSKSTSGGTAALGCLVKDYFPEPVTVSWNSGALTSGVHTFPAVLQSSGLYSLSSVVTVPSSSLGTQTYICNVNHKPSNTKVDKKVEPKSCDKTHTCPPCPAPERERGPSVFLFPPKPKDTLMISRTPEVTCVVVDVSHEDPEVKFNWYVDGVEVHNAKTKPREEQYNSTYRVVSVLTVLHQDWLNGKEYKCKVSNKALPAPIEKTISKAKGQPREPQVYTLPPSRDELTKNQVSLTCLVKGFYPSDIAVEWESNGQPENNYKTTPPVLDSDGSFFLYSKLTVDKSRWQQGNVFSCSVMHEALHNHYTQKSLSLSPGK
light: QIVLSQSPAILSASPGEKVTMTCRASSSVSYIHWFQQKPGSSPKPWIYATSNLASGVPVRFSGSGSGTSYSLTISRVEAEDAATYYCQQWTSNPPTFGGGTKLEIKRTVAAPSVFIFPPSDEQLKSGTASVVCLLNNFYPREAKVQWKVDNALQSGNSQESVTEQDSKDSTYSLSSTLTLSKADYEKHKVYACEVTHQGLSSPVTKSFNRGEC
notes: also called 2-37
- Corrected response (RU) [1]: 4.6 RU
- Corrected response (RU) [2]: 4.6 RU
- Corrected response (RU), Mean [3]: 2.4 RU
- Corrected response (RU) [4]: 0.9 RU
- Corrected response (RU) [5]: 1.8 RU

B4: anti-CD20 human IgG1 L234R/L235H/G236R (antibody)
heavy: QVQLQQPGAELVKPGASVKMSCKASGYTFTSYNMHWVKQTPGRGLEWIGAIYPGNGDTSYNQKFKGKATLTADKSSSTAYMQLSSLTSEDSAVYYCARSTYYGGDWYFNVWGAGTTVTVSSASTKGPSVFPLAPSSKSTSGGTAALGCLVKDYFPEPVTVSWNSGALTSGVHTFPAVLQSSGLYSLSSVVTVPSSSLGTQTYICNVNHKPSNTKVDKKVEPKSCDKTHTCPPCPAPERHRGPSVFLFPPKPKDTLMISRTPEVTCVVVDVSHEDPEVKFNWYVDGVEVHNAKTKPREEQYNSTYRVVSVLTVLHQDWLNGKEYKCKVSNKALPAPIEKTISKAKGQPREPQVYTLPPSRDELTKNQVSLTCLVKGFYPSDIAVEWESNGQPENNYKTTPPVLDSDGSFFLYSKLTVDKSRWQQGNVFSCSVMHEALHNHYTQKSLSLSPGK
light: QIVLSQSPAILSASPGEKVTMTCRASSSVSYIHWFQQKPGSSPKPWIYATSNLASGVPVRFSGSGSGTSYSLTISRVEAEDAATYYCQQWTSNPPTFGGGTKLEIKRTVAAPSVFIFPPSDEQLKSGTASVVCLLNNFYPREAKVQWKVDNALQSGNSQESVTEQDSKDSTYSLSSTLTLSKADYEKHKVYACEVTHQGLSSPVTKSFNRGEC
notes: also called 2-38
- Corrected response (RU) [1]: 2.3 RU
- Corrected response (RU) [2]: 3.9 RU
- Corrected response (RU), Mean [3]: 0.6 RU
- Corrected response (RU) [4]: -1.2 RU
- Corrected response (RU) [5]: 0.7 RU

B5: anti-CD20 human IgG1 L234T/L235K/G236R (antibody)
heavy: QVQLQQPGAELVKPGASVKMSCKASGYTFTSYNMHWVKQTPGRGLEWIGAIYPGNGDTSYNQKFKGKATLTADKSSSTAYMQLSSLTSEDSAVYYCARSTYYGGDWYFNVWGAGTTVTVSSASTKGPSVFPLAPSSKSTSGGTAALGCLVKDYFPEPVTVSWNSGALTSGVHTFPAVLQSSGLYSLSSVVTVPSSSLGTQTYICNVNHKPSNTKVDKKVEPKSCDKTHTCPPCPAPETKRGPSVFLFPPKPKDTLMISRTPEVTCVVVDVSHEDPEVKFNWYVDGVEVHNAKTKPREEQYNSTYRVVSVLTVLHQDWLNGKEYKCKVSNKALPAPIEKTISKAKGQPREPQVYTLPPSRDELTKNQVSLTCLVKGFYPSDIAVEWESNGQPENNYKTTPPVLDSDGSFFLYSKLTVDKSRWQQGNVFSCSVMHEALHNHYTQKSLSLSPGK
light: QIVLSQSPAILSASPGEKVTMTCRASSSVSYIHWFQQKPGSSPKPWIYATSNLASGVPVRFSGSGSGTSYSLTISRVEAEDAATYYCQQWTSNPPTFGGGTKLEIKRTVAAPSVFIFPPSDEQLKSGTASVVCLLNNFYPREAKVQWKVDNALQSGNSQESVTEQDSKDSTYSLSSTLTLSKADYEKHKVYACEVTHQGLSSPVTKSFNRGEC
notes: also called 2-58
- Corrected response (RU) [1]: 4.5 RU
- Corrected response (RU) [2]: 3.5 RU
- Corrected response (RU), Mean [3]: 2.7 RU
- Corrected response (RU) [4]: 1.1 RU
- Corrected response (RU) [5]: 2.4 RU
